Measurements: patent publication US20220280636A1

Tests used:
[1] = target: guinea pig whole molecule IgG (guinea pig); test: SPR; IgG amine coupled to CM5 chip, control flowed at 490 ug/ml at the end of the serial flows; end-point RU of association phase
[2] = target: human IgG Fc (human); test: as above
[3] = target: human whole molecule IgG (human); test: as above
[4] = target: mouse whole molecule IgG (mouse); test: as above
[5] = target: rabbit whole molecule IgG (rabbit); test: as above
[6] = target: human IgG Fc (human); test: SPR; IgG amine-coupled to CM5 chip, control flowed at 490 ug/ml at the end of the serial flows; end-point RU of association phase
[7] = target: human whole molecule IgG (human); test: as above
[8] = target: rabbit whole molecule IgG (rabbit); test: as above
[9] = target: human IgG Fc (human); test: as above; remark: listed apart in the source
[10] = target: human whole molecule IgG (human); test: as above; remark: listed apart in the source
[11] = target: rabbit whole molecule IgG (rabbit); test: as above; remark: listed apart in the source
[12] = target: guinea pig whole molecule IgG (guinea pig); test: SPR; IgG amine coupled to CM5 chip, control flowed at 490 ug/ml at the start of the serial flows; end-point RU of association phase
[13] = target: human IgG Fc (human); test: as above
[14] = target: human whole molecule IgG (human); test: as above
[15] = target: mouse whole molecule IgG (mouse); test: as above
[16] = target: rabbit whole molecule IgG (rabbit); test: as above
[17] = target: human whole molecule IgG (human); test: SPR; IgG amine-coupled to CM5 chip, control flowed at 490 ug/ml at the start of the serial flows; end-point RU of association phase
[18] = target: rabbit whole molecule IgG (rabbit); test: as above
[19] = target: human IgG Fc (human); test: as above
[20] = target: human whole molecule IgG (human); test: as above; remark: listed apart in the source
[21] = target: rabbit whole molecule IgG (rabbit); test: as above; remark: listed apart in the source
[22] = target: guinea pig whole molecule IgG (guinea pig); test: SPR; IgG amine coupled to CM5 chip, construct flowed at 750 ug/ml; end-point RU of association phase
[23] = target: human IgG Fc (human); test: as above
[24] = target: human whole molecule IgG (human); test: as above
[25] = target: mouse whole molecule IgG (mouse); test: as above
[26] = target: rabbit whole molecule IgG (rabbit); test: as above

B1: gE-1t 411 (protein)
chain: GTPKTSWRRVSVGEDVSLLPAPGPTGRGPTQKLLWAVEPLDGCGPLHPSWVSLMPPKQVPETVVDAACMRAPVPLAMAYAPPAPSATGGLRTDFVWQERAAVVNRSLVIHGVRETDSGLYTLSVGDIKDPARQVASVVLVVQPAPVPTPPPTPADYDEDDNDEGEDESLAGTPASGTPRLPPPPAPPRSWPSAPEVSHVRGVTVRMETPEAILFSPGETFSTNVSIHAIAHDDQTYSMDVVWLRFDVPTSCAEMRIYESCLYHPQLPECLSPADAPCAASTWTSRLAVRSYAGCSRTNPPPRCSAEAHMEPVPGLAWQAASVNLEFRDASPQHSGLYLCVVYVNDHIHAWGHITISTAAQYRNAVVEQPLPQRGADLAEPTHPHVGAPPHA
RU Post Association [1]: 30 RU | RU Post Association [2]: 72 RU | RU Post Association [3]: 144 RU | RU Post Association [4]: 8 RU | RU Post Association [5]: 223 RU | RU Post Association [6]: 75 RU | RU Post Association [7]: 150 RU | RU Post Association [8]: 221 RU | RU Post Association [9]: 76 RU | RU Post Association [10]: 152 RU | RU Post Association [11]: 228 RU | RU Post Association [12]: 32 RU | RU Post Association [13]: 77 RU | RU Post Association [14]: 147 RU | RU Post Association [15]: 4 RU | RU Post Association [16]: 231 RU | RU Post Association [17]: 145 RU | RU Post Association [18]: 221 RU | RU Post Association [19]: 80 RU | RU Post Association [20]: 157 RU | RU Post Association [21]: 228 RU

B2: gE-1t 419 (protein)
chain: GTPKTSWRRVSVGEDVSLLPAPGPTGRGPTQKLLWAVEPLDGCGPLHPSWVSLMPPKQVPETVVDAACMRAPVPLAMAYAPPAPSATGGLRTDFVWQERAAVVNRSLVIHGVRETDSGLYTLSVGDIKDPARQVASVVLVVQPAPVPTPPPTPADYDEDDNDEGEDESLAGTPASGTPRLPPPPAPPRSWPSAPEVSHVRGVTVRMETPEAILFSPGETFSTNVSIHAIAHDDQTYSMDVVWLRFDVPTSCAEMRIYESCLYHPQLPECLSPADAPCAASTWTSRLAVRSYAGCSRTNPPPRCSAEAHMEPVPGLAWQAASVNLEFRDASPQHSGLYLCVVYVNDHIHAWGHITISTAAQYRNAVVEQPLPQRGADLAEPTHPHVGAPPHAPPTHGALR
RU Post Association [22]: 27 RU | RU Post Association [23]: 69 RU | RU Post Association [24]: 127 RU | RU Post Association [25]: 4 RU | RU Post Association [26]: 188 RU
